Consider five molecules from US20260152567A1 (CSPC MEGALITH BIOPHARMACEUTICAL, published 2026).

Broadly, the Kd is a measure of binding affinity in units of concentration. Usually koff stands for the first-order rate constant of dissociation. What is called kon is a measure of how fast the partners come together. What is called EC50 is the concentration that produces a half-maximal response.

The target of assay [1] is T1, recombinant human CD73 protein (human, UniProt P21589 27-547).
T1 construct: Bought soluble protein; The background says that CD73 forms a homodimer; also called soluble CD73; free CD73 protein
T1 sequence (looked up): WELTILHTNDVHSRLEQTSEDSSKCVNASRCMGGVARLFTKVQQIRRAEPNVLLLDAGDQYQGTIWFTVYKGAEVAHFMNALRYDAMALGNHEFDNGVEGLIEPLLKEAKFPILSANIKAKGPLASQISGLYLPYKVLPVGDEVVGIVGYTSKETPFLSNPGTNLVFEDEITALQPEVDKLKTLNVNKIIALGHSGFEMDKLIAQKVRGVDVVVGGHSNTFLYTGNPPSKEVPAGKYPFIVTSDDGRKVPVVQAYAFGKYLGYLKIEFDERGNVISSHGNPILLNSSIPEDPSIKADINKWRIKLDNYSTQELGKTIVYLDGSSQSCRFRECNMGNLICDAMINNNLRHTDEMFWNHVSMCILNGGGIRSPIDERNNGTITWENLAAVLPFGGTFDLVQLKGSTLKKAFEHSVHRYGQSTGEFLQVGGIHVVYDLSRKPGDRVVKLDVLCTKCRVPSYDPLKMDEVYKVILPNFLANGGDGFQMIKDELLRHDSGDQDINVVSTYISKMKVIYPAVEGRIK
Nature of the assay: BLI (Fortebio), human CD73 on HIS1K biosensors, antibody as analyte. The method, then: The humanized antibody VH and VL were separately constructed into eukaryotic expression vectors containing the hIgG1-kappa constant region with L234A, L235A, P329A and P331S mutations (abbreviated as hIgG1 in the present application). The affinity of all humanized antibodies was assayed in this example. Human CD73 protein was immobilized onto HIS1K biosensors to achieve a binding response threshold of 0.3 nm. After a 120-second baseline step, the sensors were separately immersed in anti-CD73 antibody analytes diluted in a gradient with a 0.02% PBST buffer (each antibody was diluted in a 2-fold gradient with an initial concentration of 25 nM, resulting in 7 concentration gradients). The times for the ligand-analyte binding and dissociation were 120 s and 300 s, respectively. The data of the antigen-antibody affinity were calculated by regression according to the binding curves using an analysis software.

The target of assay [2] is T2, cynomolgus monkey CD73 protein (cynomolgus monkey, UniProt A0A2K5V5U7 27-547).
T2 construct: construct not described
T2 sequence: T1 sequence (looked up) with M199T, T350A, V466I
Nature of the assay: BLI (Fortebio), cynomolgus CD73 on HIS1K biosensors, antibody as analyte. The method, then:
In this example, the cross-binding ability of the exemplary humanized anti-CD73 antibodies of the present application to cynomolgus monkey CD73 was assayed by a Fortebio experiment. The specific implementation steps included immobilizing the cynomolgus monkey CD73 protein onto HIS1K biosensors. […] The times for the ligand-analyte binding and dissociation were 120 s and 300 s, respectively. The data of the antigen-antibody affinity were calculated by regression according to the binding curves using an analysis software.

Assay [3] deals with T1, recombinant human CD73 protein. Nature of the assay: ELISA, plate coated with recombinant human CD73 at 1 µg/mL. The method, then: The obtained eukaryotic expression vectors were transiently transferred into HEK293 cells, and the cells were then cultured for 6 days. The culture supernatants were harvested and purified by a ProteinA column to obtain the target antibodies, which were named 7C3C2-hIgG1 and 1F2F9-hIgG1, respectively. The affinity of the antibodies for the recombinant human CD73 protein (as described in Example 1) was determined using ELISA method. A elisa plate was coated with the recombinant human CD73 protein at a concentration of 1 μg/mL and washed 3 times with a PBST buffer. Then, the plate was blocked with a PBS buffer containing 2% BSA at 37° C. for 2 h and washed 3 times with a PBST buffer. 5-fold gradient dilutions (0-133.3 nM) of the test antibodies were added, and the mixture was incubated at 37° C. for 2 h. The plate was further washed 3 times with a PBST buffer. A horseradish peroxidase-labeled secondary antibody was added, and the mixture was incubated at 37° C. for 1 h. The plate was then washed 3 times with a PBST buffer. Chromogenic reaction was performed, and the absorbance values were read after the reaction was terminated.
Background: ELISA stands for enzyme-linked immunosorbent assay.

Assay [4] addresses T3, human CD73 on the cell surface (MDA-MB-231 and SKOV3 tumor cells) (human, UniProt P21589 27-549).
T3 construct: whole, on cells; also called cell surface CD73; CD73 on the surface of human tumor cells
T3 sequence (looked up): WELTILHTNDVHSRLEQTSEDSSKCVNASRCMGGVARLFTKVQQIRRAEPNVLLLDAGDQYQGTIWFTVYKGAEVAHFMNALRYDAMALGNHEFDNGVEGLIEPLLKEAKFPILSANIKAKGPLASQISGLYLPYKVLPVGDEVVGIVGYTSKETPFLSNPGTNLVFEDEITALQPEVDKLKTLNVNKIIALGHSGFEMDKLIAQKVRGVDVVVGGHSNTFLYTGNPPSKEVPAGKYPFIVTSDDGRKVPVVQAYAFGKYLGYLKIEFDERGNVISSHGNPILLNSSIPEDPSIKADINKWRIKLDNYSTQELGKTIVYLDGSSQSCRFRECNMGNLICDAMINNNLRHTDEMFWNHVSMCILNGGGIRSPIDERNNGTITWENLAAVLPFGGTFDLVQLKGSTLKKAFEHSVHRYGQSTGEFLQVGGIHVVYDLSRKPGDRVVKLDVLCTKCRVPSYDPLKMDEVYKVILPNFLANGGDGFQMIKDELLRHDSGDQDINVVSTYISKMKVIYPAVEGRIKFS
In words: flow cytometry on MDA-MB-231 cells. The method, then: (§1) In this example, the exemplary antibodies of the present application were compared with anti-CD73 antibodies described in other patent applications. Antibodies MEDI9447 and Hu101-28 (with CDR sequences from PCT patent applications WO 2016/075099 and WO 2018/137598, respectively) were cloned into eukaryotic expression vectors containing the hIgG1-kappa constant region. The binding ability of the humanized antibodies Hab7C3C2.5 and Hab1F2F9.15 to cell surface CD73 was assessed using tumor cell lines MDA-MB-231 and SKOV3 which endogenously express human CD73 on the cell surface. The cells were seeded in a 96-well plate at a density of 2×10⁶ cells/mL, with 100 μL per well. 4-fold gradient dilutions (0-100 nM) of the antibodies were added, and the mixture was incubated at 4° C. for 1 h. A goat anti-human secondary antibody was added, and the mixture was incubated at 4° C. in the dark for 50 min for labeling. The fluorescence intensity of the cells was then measured by a flow cytometer.

The target of assay [5] is T3, human CD73 on the cell surface …. In words: flow cytometry on SK-OV-3 cells. The method, then: as §1
(A flow cytometer gives signals particle by particle.)

Where a chain is given by its changes, count along the chain named.

B1: Hab7C3C2.9 (antibody, human IgG1, kappa, L234A L235A, V domains shown)
VH: QVQLVQSGAEVKKPGASVKVSCKASGYTFTSYDINWVRQATGQGLEWMGWIYPRDGFTKYAQKFQGRVTITVNTSISTAYMELSSLRSEDTAVYYCARKEGYRGDWYFDVWGQGTTVTVSS
VL: DIQMTQSPSSLSASVGDRVTITCRASGNVHNYLAWYQQKPGKAPKLLLYNAKTLASGVPSRFSGSGSGTDYTLTISSLQPEDFATYYCQHFWSTPWTFGGGTELEIKR
notes: Humanized 7C3C2; also called Huab7C3C.9
B1: in assay [1], the Kd was 1.03 nM, the dissociation rate constant (koff) came out at 0.00381 s⁻¹ and the kon is 3.7e+06 M⁻¹ s⁻¹. In assay [2], this molecule displayed a Kd of 0.852 nM, a dissociation rate constant (koff) of 0.00388 s⁻¹ and an on-rate (kon) of 4.56e+06 M⁻¹ s⁻¹.

B2: 7C3C2-hIgG1 (antibody, V domains shown)
VH: QVQLQQSGPELVKPGASVKLSCKASGYTFTSYDINWVKQRPGQGLEWIGWIYPRDGFTKYNEKFKGKATLTVDTSSSTAYMELHSLTSEDSAVYFCARKEGYRGDWYFDVWGTGTTVTVSS
VL: DIQMTQSPASLSASVGETVTITCRASGNVHNYLAWYQQKQGKSPQLLVYNAKTLADGVPSRFSGSGSGTQYSLKINSLQPEDFGSYYCQHFWSTPWTFGGGTELEIKR
notes: Human-mouse chimeric antibody, expressed in HEK293, Protein A purified; also called 7C3C2 chimeric antibody
On to B2, for which the half-maximal effective concentration (EC50) in assay [3] came out at 0.017 nM.

B3: MEDI9447 (antibody, V domains shown)
VH: EVQLLESGGGLVQPGGSLRLSCAASGFTFSSYAYSWVRQAPGKGLEWVSAISGSGGRTYYADSVKGRFTISRDNSKNTLYLQMNSLRAEDTAVYYCARLGYGRVDEWGRGTLVTVSS
VL: QSVLTQPPSASGTPGQRVTISCSGSLSNIGRNPVNWYQQLPGTAPKLLIYLDNLRLSGVPDRFSGSKSGTSASLAISGLQSEDEADYYCATWDDSHPGWTFGGGTKLTVLG
Take B3: the results for the EC50 in assay [4] and in assay [5] were 0.49 nM and 0.17 nM, respectively.

B4: Hab1F2F9.12 (antibody, human IgG1, kappa, L234A L235A, V domains shown)
VH: QVQLVQSGAEVKKPGASVKVSCKASGYTFTSYWMHWVRQAPGQRLEWMGNINPSNGGTKYNEKFQGRVTITVDTSASTAYMELSSLRSEDTAVYYCARRDYGSPSYWGQGTTVTVSS
VL: DIQMTQSPSSLSASVGDRVTITCKASQDINSYLTWFQQKPGKAPKSLIYRTNILLDGVPSRFSGSGSGTDYTLTISSLQPEDFATYYCLQYHEFPVTFGGGTKLEIKR
notes: Humanized 1F2F9; also called Huab1F2F9.12
With B4, in assay [1], the Kd came to 0.72 nM, the off-rate constant (koff) is 0.00133 s⁻¹ and the kon came to 1.85e+06 M⁻¹ s⁻¹. In assay [2], binding was put at a Kd of 0.681 nM, the koff was determined as 0.00152 s⁻¹ and the kon came to 2.22e+06 M⁻¹ s⁻¹.

B5: 1F2F9-hIgG1 (antibody, V domains shown)
VH: QVQLQQPGTELVKPGASVKLSCKASGYTFTSYWMHWVKQRPGHGLEWIGNINPSNGGTKYNEKFKSKATLTVDKSSSTAYLQLSSLTSEDSAVYYCARRDYGSPSYWGQGTLVTVSA
VL: DIKMTQSPSSIYASLGERVTITCKASQDINSYLTWFQQKVGKSPKTLIYRTNILLDGVPSRFSGSGSGQDYSLTISSLDYEDMGIYHCLQYHEFPVTFGAGTKLELKR
notes: Human-mouse chimeric antibody, expressed in HEK293, Protein A purified; also called 1F2F9 chimeric antibody
B5: the EC50 in assay [3] was 0.028 nM.
